Laboratory results reported in US6362319B1, “Glial cell line-derived neurotrophic factor” (Amgen Inc., priority 1991, dated 2002).

Tested on: TH+ dopamine neurons in mesencephalic cultures
Test: Tyrosine hydroxylase (TH) immunoreactivity in mesencephalic cultures
Type: cell-based, rat
Settings: added at day of plating, examined eight days later
Method: FIGS. 20A-B depicts the ability of GDNF to stimulate dopamine uptake and tyrosine hydroxylase (TH) immunostaining in dopaminergic neurons. Cultures were established as described in Example 1B. […] B. […] Primary antibody binding was visualized using a Vectastain ABC kit (Vector Labs, Burlingame, Calif.).
Culture conditions: Dissociated mesencephalic cell cultures were prepared as previously described (Friedman and Mytilineou 1987 Neurosci. Lett. 79:65-72), with minor modifications. Briefly, rostral mesencephalic tegmentum from brains of Sprague-Dawley rat embryos, at the 16th day of gestation, were dissected under the microscope in sterile conditions, collected in Ca^2+- and Mg^2+-free Dulbecco's phosphate buffered saline (Gibco, Gaithersburg, Md.) and dissociated mechanically by mild trituration. The cells were plated in 100 μl per well onto 16-mm diameter tissue culture wells (Falcon, Lincoln Park, N.J., 24-well plate) containing 400 μl medium to give a density of 2.5-3.5×10^5 cells per well. The culture wells had been previously exposed to 0.1 mg/ml solution of poly L-ornithine in 10 mM sodium borate, pH 8.4, for 3 hours at 37° C., washed 3 times in milli-Q H2O and once in Earle's balanced salt solution (Gibco). […]

B1: glial cell line-derived neurotrophic factor (protein)
chain: SNMPEDYPDQFDDVMDFIQATIKRLKRSPDKQMAVLPRRERNRQAAAANPENSRGKGRRGQRGKNRGCVLTAIHLNVTDLGLGYETKEELIFRYCSGSCDAAETTYDKILKNLSRNRRLVTDKVGQACCRPIAF
notes: dopaminergic neurotrophic protein purified from serum-free conditioned medium of rat B49 glioblastoma cells; disulfide-bonded dimer
number of TH+ neurons over controls without GDNF: tenfold higher
